We go through one molecule from paper PMC8441146, “DNA-guided photoactivatable probe-based chemical proteomics reveals the reader protein of mRNA methylation”.

In one data set the target is T1, DDX1 lacking D2 domain (UniProt Q92499 1-450).
T1 sequence: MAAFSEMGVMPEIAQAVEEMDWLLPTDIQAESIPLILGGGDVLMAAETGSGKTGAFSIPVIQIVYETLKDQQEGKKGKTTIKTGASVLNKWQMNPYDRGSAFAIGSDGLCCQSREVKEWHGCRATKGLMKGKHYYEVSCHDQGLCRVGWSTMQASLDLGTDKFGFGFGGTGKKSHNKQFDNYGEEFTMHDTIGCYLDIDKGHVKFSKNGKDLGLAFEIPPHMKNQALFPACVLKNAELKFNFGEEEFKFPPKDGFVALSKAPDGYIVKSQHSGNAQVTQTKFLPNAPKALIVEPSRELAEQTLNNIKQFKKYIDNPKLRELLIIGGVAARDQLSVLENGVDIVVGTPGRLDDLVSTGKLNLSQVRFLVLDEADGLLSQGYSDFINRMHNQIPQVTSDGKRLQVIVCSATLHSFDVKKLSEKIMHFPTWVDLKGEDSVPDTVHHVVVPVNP
Nature of the data set: ITC; ITC: 20 mM Tris pH 7.5, 150 mM NaCl, 25 C; YTH labelling: 3 uM YTH, 12 uM BP/CP (200 mM NaCl chosen after optimization); pull-down: HeLa RIPA lysate, 4 C, UV 6. Particulars: protein: recombinant; tags: pET28a, Ni-NTA purified (His). For orientation: Isothermal titration calorimetry measures the heat released or taken up as one component is titrated into another.

The target in a further data set is T2, DDX1 (UniProt Q92499 1-728).
T2 sequence: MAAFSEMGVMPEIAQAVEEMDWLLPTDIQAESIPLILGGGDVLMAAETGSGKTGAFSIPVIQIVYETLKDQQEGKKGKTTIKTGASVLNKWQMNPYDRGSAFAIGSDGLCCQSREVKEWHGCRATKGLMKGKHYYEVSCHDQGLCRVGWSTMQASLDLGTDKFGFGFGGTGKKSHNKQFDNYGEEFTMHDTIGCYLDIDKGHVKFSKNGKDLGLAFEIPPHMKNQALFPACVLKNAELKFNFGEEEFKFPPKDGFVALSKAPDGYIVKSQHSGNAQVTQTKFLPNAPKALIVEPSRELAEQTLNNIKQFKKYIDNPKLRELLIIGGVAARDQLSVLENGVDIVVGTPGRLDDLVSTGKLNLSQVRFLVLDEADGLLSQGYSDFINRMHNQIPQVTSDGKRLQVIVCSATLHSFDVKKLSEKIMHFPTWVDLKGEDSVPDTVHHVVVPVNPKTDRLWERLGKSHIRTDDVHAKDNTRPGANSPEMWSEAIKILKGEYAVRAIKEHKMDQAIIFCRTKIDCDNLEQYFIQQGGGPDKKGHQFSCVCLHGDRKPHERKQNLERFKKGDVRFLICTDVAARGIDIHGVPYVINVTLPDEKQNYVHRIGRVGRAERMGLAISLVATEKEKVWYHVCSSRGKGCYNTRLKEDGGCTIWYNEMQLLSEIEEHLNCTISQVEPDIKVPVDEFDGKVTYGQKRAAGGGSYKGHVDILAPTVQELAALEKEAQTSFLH
The data set is described as above. Conditions: protein: recombinant; tags: pET28a, Ni-NTA purified (His).

In the case of AAGAUC (ssRNA, 2'-O-methyl A) [Am-modified ssRNA (ITC)], the figures for the binding result with DDX1 lacking D2 domain and in the data set with DDX1 were “no binding” and “binds”, respectively.
